{"source": "patent US10752675B2", "about": "“Compounds for treating the remyelination blockade in diseases associated with the expression of HERV-W envelope protein” (GENEURO S.A., priority 2012, dated 2020)", "molecules": {"B1": {"name": "GNbAC1: recombinant humanized anti-Env IgG4 monoclonal antibody comprising the CDRs of SEQ ID No. 1 to 6 (antibody, chains of the INN, looked up, V domains shown)", "VH": "QVQLVQSGAEVKKPGSSVKVSCKASGYTFTDYEMHWVRQAPGQGLEWIGAVAPETGGTAYNQKFKGRATITADKSTSTAYMELSSLRSEDTAVYYCTSTVVPFAYWGQGTLVTVSS", "VL": "QIQLTQSPSSLSASVGDRVTITCSASSSVSYMYWYQQKPGKAPKAWIYRTSNLASGVPSRFSGSGSGTDYTLTISSLQPEDFATYYCQQYQSLPLTFGGGTKVEIK"}}, "key": {"[1]": {"tested_on": "MSRV-Env induced EAE in C57BL/6 mice", "assay": "EAE clinical score, Example 3.C (GNbAC1 and Sodium Fumarate)", "type": "in vivo", "text": "Animals were weighed and clinically scored 5 days per week according to the following criteria: 0=no signs; 1=tail paralysis or hyper-reflex of hind limb(s) or unilateral hind limb weakness; 2=bilateral hind limb or forelimb weakness; 3=plus unilateral paralysis or major deficit; 4=complete hind limb or forelimb paralysis; 5=plus partial paralysis or major deficit of opposite limbs; 6=moribund or dead. These were adapted from standard criteria, in order to reflect the more rapid induction of brain and cervical cord lesions with this model."}, "human OPC": {"tested_on": "human OPC", "assay": "Expression of MBP in human OPC in primary culture stimulated by MSRV-Env, with or without GNbAC1 (immunocytochemistry)", "type": "cell-based", "conditions": "for MBP positive cells, normalized to control condition (buffer = 100%): pooled data", "experimental": "Full length recombinant MSRV-Env was produced and purified by PX′Therapeutics (548 aa; 61.44 KDa) (batch 110719-1). The initial concentration was 0.6 mg/ml (9.76 μM). MSRV-Env Buffer (20 mM Trizma-HCl, pH 7.5, 150 mM NaCl, 1.5% SDS, 10 mM DTT) was provided by PX′Therapeutics. This solution was used as a negative control. GNbAC1 (Batch T96/bAC1/B1; GMP production) was produced and purified by Polymun Scientific, Vienna, Austria. The initial concentration was 10 mg/ml (68.03 μM).\nHuman OPC were stimulated with the different treatments either by coating solutions on the cell culture plate surface before cells seeding or by adding them in the cell culture medium after cells seeding. In any case, labtek 8-wells chamber slides (Nunc) were previously coated with poly-L-lysine (Sigma-Aldrich) overnight at 37° C.\nThe different treatments were diluted in PBS under a sterile laminar flow hood (Fischer Bioblock, France) and the Labtek 8 wells chambers slides (Nunc; 250 μl per well) were coated as follows: • MSRV-Env (1 μg/ml) coated for 2 hours at 37° C. • MSRV-Env Buffer (same dilution than MSRV-Env) coated for 2 hours at 37° C. • MSRV-Env+GNbAC1 A1: MSRV-Env (1 μg/ml) and GNbAC1 (7.35 μg/ml=50 nM) mixture coated for 2 hours at 37° C. • MSRV-Env+GNbAC1 A2: MSRV-Env (1 μg/ml) and GNbAC1 (29.4 μg/ml=200 nM) mixture coated for 2 hours at 37° C. • MSRV-Env+GNbAC1 B1: MSRV-Env (1 μg/ml) coated for 2 hours at 37° C., washed with PBS and subsequently coated with GNbAC1 (7.35 μg/ml=50 nM) for 1 hour at 37° C. • MSRV-Env+GNbAC1 B2: MSRV-Env (1 μg/ml) coated for 2 hours at 37° C., washed with PBS and subsequently coated with GNbAC1 (29.4 μg/ml=200 nM) for 1 hour at 37° C. • GNbAC1 A1 alone: GNbAC1 (7.35 μg/ml=50 nM) coated for 2 hours at 37° C. • GNbAC1 A2 alone: GNbAC1 (29.4 μg/ml=200 nM) coated for 2 hours at 37° C. • GNbAC1 B1 alone: PBS for 2 hours at 37° C., then coated with GNbAC1 (7.35 μg/ml=50 nM) for 1 hour at 37° C. • GNbAC1 B2 alone: PBS for 2 hours at 37° C., then coated with GNbAC1 (29.4 μg/ml=200 nM) for 1 hour at 37° C. • BSA (1 μg/ml) coated for 2 hours at 37° C. • BSA+GNbAC1 A1: BSA (1 μg/ml) and GNbAC1 (7.35 μg/ml=50 nM) mixture coated for 2 hours at 37° C. • BSA+GNbAC1 A2: BSA (1 μg/ml) and GNbAC1 (29.4 μg/ml=200 nM) mixture coated for 2 hours at 37° C. • BSA+GNbAC1 B1: BSA (1 μg/ml) coated for 2 hours at 37° C., washed with PBS and subsequently coated with GNbAC1 (7.35 μg/ml=50 nM) for 1 hour at 37° C. • BSA+GNbAC1 B2: BSA (1 μg/ml) coated for 2 hours at 37° C., washed with PBS and subsequently coated with GNbAC1 (29.4 μg/ml=200 nM) for 1 hour at 37° C. Human Oligodendrocyte Precursor Cells Culture\nThe vial containing the human OPC was placed in a 37° C. water bath and gently agitated by rotation until the content was completely thawed. The cells were gently resuspended with a 1 ml Gilson pipette. Then, they were diluted in complete OPCM, and seeded into the 8-wells labtek culture vessels (7000 cells/cm^2=10000 cells per well) previously coated with poly-L-lysine (0.01%, Sigma) and with (or without) the treatments described above (see 3.2.1.1) under a sterile laminar flow hood (Fischer Bioblock, France). The cultures were incubated at 37° C.; 5% CO2 until subsequent immunocytochemistry experiments. The growth medium was changed the next day to remove the residual DMSO and unattached cells in the cultures treated for 72 hours.\nAfter 3 hours of pre-cultivation (see 3.2.1.2) of the human OPC in the 8-well labtek culture vessels, the cells were incubated at 37° C. for 24 hours or 72 hours in 8-wells labteks (250 μl/well) with the addition of the following solutions: • MSRV-Env Buffer, used as a negative control, added in complete cell culture medium • MSRV-Env added at 3 nM (0.184 μg/ml) in complete cell culture medium • MSRV-Env (3 nM)+GNbAC1 (200 nM; 29.4 μg/ml) mixture added in complete cell culture medium • GNbAC1 (200 nM) alone added in complete cell culture medium Expression of TLR4 and Myelination Markers in OPC In Vitro […]"}}, "note": "“Also recorded” adds a separate entry of the source.", "data": [{"molecule": "B1", "values": [{"measurement": "EAE clinical score kinetics and endpoint", "setting": "[1]; from day 12: GNbAC1 500 μg IP, Sodium Fumarate 10 mg daily in 3.5 ml drinking water, versus isotype control antibody", "result": "significant reversion of their clinical score curves; also recorded: equivalent and significantly good recovery at the end of the study"}, {"measurement": "day from which clinical improvement appeared", "setting": "[1]; treatment started day 12", "result": 15, "unit": "days"}, {"measurement": "effect on the decrease of MBP positive cells induced by coated MSRV-Env", "setting": "human OPC; GNbAC1 50 nM, both protocols, 72 hours", "result": "partial effect; also recorded: partially inhibits MSRV-Env effect"}, {"measurement": "effect on the decrease of MBP positive cells induced by coated MSRV-Env", "setting": "human OPC; GNbAC1 200 nM, both protocols, 72 hours", "result": "complete inhibition"}, {"measurement": "effect on the inhibition of MBP expression induced by coated MSRV-Env", "setting": "human OPC; GNbAC1 200 nM, both protocols, 72 hours, OPC ICC 03", "result": "completely reverses"}, {"measurement": "percentage of MBP positive cells", "setting": "human OPC; GNbAC1-A 50 nM, coated MSRV-Env 1 μg/ml, 72 hours, OPC ICC 02", "result": "69±2", "unit": "%"}, {"measurement": "MBP positive cells, normalized to control condition (buffer = 100%)", "setting": "human OPC; GNbAC1-A 200 nM with coated MSRV-Env", "result": "101±2", "unit": "%"}, {"measurement": "percentage of MBP positive cells", "setting": "human OPC; GNbAC1-A 200 nM, coated MSRV-Env 1 μg/ml, 72 hours, OPC ICC 02", "result": "73±2", "unit": "%"}, {"measurement": "percentage of MBP positive cells", "setting": "human OPC; GNbAC1-A 200 nM, coated MSRV-Env 1 μg/ml, 72 hours, OPC ICC 03", "result": "80±2", "unit": "%"}, {"measurement": "percentage of MBP positive cells", "setting": "human OPC; GNbAC1-B 50 nM, coated MSRV-Env 1 μg/ml, 72 hours, OPC ICC 02", "result": "68±2", "unit": "%"}, {"measurement": "MBP positive cells, normalized to control condition (buffer = 100%)", "setting": "human OPC; GNbAC1-B 200 nM with coated MSRV-Env", "result": "97±2", "unit": "%"}, {"measurement": "percentage of MBP positive cells", "setting": "human OPC; GNbAC1-B 200 nM, coated MSRV-Env 1 μg/ml, 72 hours, OPC ICC 02", "result": "74±2", "unit": "%"}, {"measurement": "percentage of MBP positive cells", "setting": "human OPC; GNbAC1-B 200 nM, coated MSRV-Env 1 μg/ml, 72 hours, OPC ICC 03", "result": "75±2", "unit": "%"}, {"measurement": "percentage of MBP positive cells", "setting": "human OPC; MSRV-Env 3 nM + GNbAC1 200 nM in culture medium, 72 hours", "result": "76±2", "unit": "%"}, {"measurement": "effect on the decrease of MBP expression induced by MSRV-Env in culture medium", "setting": "human OPC; MSRV-Env 3 nM, GNbAC1 200 nM, 72 hours", "result": "inhibits completely this effect"}]}]}
